Laboratory results as given in patent US12180485B2, “Repressible control of gene expression” (TRUSTEES OF BOSTON UNIVERSITY, priority 2020, dated 2024).

B1: SEQ ID NO: 801: inducible system polypeptide, probably Table 20 (GID-GAI) (protein)
chain: MLDLASLILIEKKKSFAKGMGVKSTLVSGSKVYMTTFAEGSDARLEKIVEGDSIRSVNEGEAFSAEMADKNAGYKIGNAKFSHPKGYAVVANNPLYTGPVQQDMLGLKETLEKRYFGESADGNDNICIQVIHNILDIEKILAEYITNAAYAVNNISGLDKDIIGFGKFSTVYTYDEFKDPEHHRAAFNNNDKLINAIKAQYDEFDNFLDNPRLGYFGQAFFSKEGRNYIINYGNECYDILALLSGLRHWVVHNNEEESRISRTWLYNLDKNLDNEYISTLNYLYDRITNELTNSFSKNSAANVNYIAETLGINPAEFAEQYFRFSIMKEQKNLGFNITKLREVMLDRKDMSEIRKNHKVFDSIRTKVYTMMDFVIYRYYIEEDAKVAAANKSLPDNEKSLSEKDIFVINLRGSFNDDQKDALYYDEANRIWRKLENIMHNIKEFRGNKTREYKKKDAPRLPRILPAGRDVSAFSKLMYALTMFLDGKEINDLLTTLINKFDNIQSFLKVMPLIGVNAKFVEEYAFFKDSAKIADELRLIKSFARMGEPIADARRAMYIDAIRILGTNLSYDELKSGGSGSGSSGGSGTMAASDEVNLIESRTVVPLNTWVLISNFKVAYNILRRPDGTFNRHLAEYLDRKVTANANPVDGVFSFDVLIDRRINLLSRVYRPAYADQEQPPSILDLEKPVDGDIVPVILFFHGGSFAHSSANSAIYDTLCRRLVGLCKCVVVSVNYRRAPENPYPCAYDDGWIALNWVNSRSWLKSKKDSKVHIFLAGDSSGGNIAHNVALRAGESGIDVLGNILLNPMFGGNERTESEKSLDGKYFVTVRDRDWYWKAFLPEGEDREHPACNPFSPRGKSLEGVSFPKSLVVVAGLDLIRDWQLAYAEGLKKAGQEVKLMHLEKATVGFYLLPNNNHFHNVMDEISAFVNAECLDLASLIL
B2: Split 263/264: RfxCas13d split at 263/264 (SEQ ID NOs: 14, 15) with GIB CID domains (protein)
chain 1: IEKKKSFAKGMGVKSTLVSGSKVYMTTFAEGSDARLEKIVEGDSIRSVNEGEAFSAEMADKNAGYKIGNAKFSHPKGYAVVANNPLYTGPVQQDMLGLKETLEKRYFGESADGNDNICIQVIHNILDIEKILAEYITNAAYAVNNISGLDKDIIGFGKFSTVYTYDEFKDPEHHRAAFNNNDKLINAIKAQYDEFDNFLDNPRLGYFGQAFFSKEGRNYIINYGNECYDILALLSGLRHWVVHNNEEESRISRTWLYNLDKNL
chain 2: DNEYISTLNYLYDRITNELTNSFSKNSAANVNYIAETLGINPAEFAEQYFRFSIMKEQKNLGFNITKLREVMLDRKDMSEIRKNHKVFDSIRTKVYTMMDFVIYRYYIEEDAKVAAANKSLPDNEKSLSEKDIFVINLRGSFNDDQKDALYYDEANRIWRKLENIMHNIKEFRGNKTREYKKKDAPRLPRILPAGRDVSAFSKLMYALTMFLDGKEINDLLTTLINKFDNIQSFLKVMPLIGVNAKFVEEYAFFKDSAKIADELRLIKSFARMGEPIADARRAMYIDAIRILGTNLSYDELKALADTFSLDENGNKLKKGKHGMRNFIINNVISNKRFHYLIRYGDPAHLHEIAKNEAVVKFVLGRIADIQKKQGQNGKNQIDRYYETCIGKDKGKSVSEKVDALTKIITGMNYDQFDKKRSVIEDTGRENAEREKFKKIISLYLTVIYHILKNIVNINARYVIGFHCVERDAQLYKEKGYDINLKKLEEKGFSSVTKLCAGIDETAPDKRKDVEKEMAERAKESIDSLESANPKLYANYIKYSDEKKAEEFTRQINREKAKTALNAYLRNTKWNVIIREDLLRIDNKTCTLFRNKAVHLEVARYVHAYINDIAEVNSYFQLYHYIMQRIIMNERYEKSSGKVSEYFDAVNDEKKYNDRLLKLLCVPFGYCIPRFKNLSIEALFDRNEAAKFDKEKKKVSGNS
modifications: GIB CID domains attached
B3: SEQ ID NO: 804: inducible system polypeptide, probably Table 20 (GID-GAI) (protein)
chain: MAPKKKRKVGIHGVPAAKRDHHHHHHQDKKTMMMNEEDDGNGMDELLAVLGYKVRSSEMADVAQKLEQLEVMMSNVQEDDLSQLATETVHYNPAELYTWLDSMLTDLNSGGSGSGSSGGSGTDKGKSVSEKVDALTKIITGMNYDQFDKKRSVIEDTGRENAEREKFKKIISLYLTVIYHILKNIVNINARYVIGFHCVERDAQLYKEKGYDINLKKLEEKGFSSVTKLCAGIDETAPDKRKDVEKEMAERAKESIDSLESANPKLYANYIKYSDEKKAEEFTRQINREKAKTALNAYLRNTKWNVIIREDLLRIDNKTCTLFRNKAVHLEVARYVHAYINDIAEVNSYFQLYHYIMQRIIMNERYEKSSGKVSEYFDAVNDEKKYNDRLLKLLCVPFGYCIPRFKNLSIEALFDRNEAAKFDKEKKKVSGNSGSGPKKKRKV
B4: SEQ ID NO: 805: inducible system polypeptide, probably Table 20 (GID-GAI) (protein)
chain: MLDLASLILIEKKKSFAKGMGVKSTLVSGSKVYMTTFAEGSDARLEKIVEGDSIRSVNEGEAFSAEMADKNAGYKIGNAKFSHPKGYAVVANNPLYTGPVQQDMLGLKETLEKRYFGESADGNDNICIQVIHNILDIEKILAEYITNAAYAVNNISGLDKDIIGFGKFSTVYTYDEFKDPEHHRAAFNNNDKLINAIKAQYDEFDNFLDNPRLGYFGQAFFSKEGRNYIINYGNECYDILALLSGLRHWVVHNNEEESRISRTWLYNLDKNLDNEYISTLNYLYDRITNELTNSFSKNSAANVNYIAETLGINPAEFAEQYFRFSIMKEQKNLGFNITKLREVMLDRKDMSEIRKNHKVFDSIRTKVYTMMDFVIYRYYIEEDAKVAAANKSLPDNEKSLSEKDIFVINLRGSFNDDQKDALYYDEANRIWRKLENIMHNIKEFRGNKTREYKKKDAPRLPRILPAGRDVSAFSKLMYALTMFLDGKEINDLLTTLINKFDNIQSFLKVMPLIGVNAKFVEEYAFFKDSAKIADELRLIKSFARMGEPIADARRAMYIDAIRILGTNLSYDELKALADTFSLDENGNKLKKGKHGMRNFIINNVISNKRFHYLIRYGDPAHLHEIAKNEAVVKFVLGRIADIQKKQGQNGKNQIDRYYETCIGKSGGSGSGSSGGSGTMAASDEVNLIESRTVVPLNTWVLISNFKVAYNILRRPDGTFNRHLAEYLDRKVTANANPVDGVFSFDVLIDRRINLLSRVYRPAYADQEQPPSILDLEKPVDGDIVPVILFFHGGSFAHSSANSAIYDTLCRRLVGLCKCVVVSVNYRRAPENPYPCAYDDGWIALNWVNSRSWLKSKKDSKVHIFLAGDSSGGNIAHNVALRAGESGIDVLGNILLNPMFGGNERTESEKSLDGKYFVTVRDRDWYWKAFLPEGEDREHPACNPFSPRGKSLEGVSFPKSLVVVAGLDLIRDWQLAYAEGLKKAGQEVKLMHLEKATVGFYLLPNNNHFHNVMDEISAFVNAECLDLASLIL
B5: SEQ ID NO: 809: inducible system polypeptide, probably Table 20 (GID-GAI) (protein)
chain: MAASDEVNLIESRTVVPLNTWVLISNFKVAYNILRRPDGTFNRHLAEYLDRKVTANANPVDGVFSFDVLIDRRINLLSRVYRPAYADQEQPPSILDLEKPVDGDIVPVILFFHGGSFAHSSANSAIYDTLCRRLVGLCKCVVVSVNYRRAPENPYPCAYDDGWIALNWVNSRSWLKSKKDSKVHIFLAGDSSGGNIAHNVALRAGESGIDVLGNILLNPMFGGNERTESEKSLDGKYFVTVRDRDWYWKAFLPEGEDREHPACNPFSPRGKSLEGVSFPKSLVVVAGLDLIRDWQLAYAEGLKKAGQEVKLMHLEKATVGFYLLPNNNHFHNVMDEISAFVNAECSGGSGSGSSGGSGTSYDELKALADTFSLDENGNKLKKGKHGMRNFIINNVISNKRFHYLIRYGDPAHLHEIAKNEAVVKFVLGRIADIQKKQGQNGKNQIDRYYETCIGKDKGKSVSEKVDALTKIITGMNYDQFDKKRSVIEDTGRENAEREKFKKIISLYLTVIYHILKNIVNINARYVIGFHCVERDAQLYKEKGYDINLKKLEEKGFSSVTKLCAGIDETAPDKRKDVEKEMAERAKESIDSLESANPKLYANYIKYSDEKKAEEFTRQINREKAKTALNAYLRNTKWNVIIREDLLRIDNKTCTLFRNKAVHLEVARYVHAYINDIAEVNSYFQLYHYIMQRIIMNERYEKSSGKVSEYFDAVNDEKKYNDRLLKLLCVPFGYCIPRFKNLSIEALFDRNEAAKFDKEKKKVSGNSGSGPKKKRKVPKKKRKV

Tested on: mCherry expression in HEK293 FT cells
Assay: Inducible split RfxCas13d (GIB, RAP, ABA, Dano, GRZ CID domains; NES/NLS variants) mCherry knockdown, leakiness and inducibility
Type: cell-based
Conditions: for performance in the tested conditions: inducible polypeptide systems of Tables 18-22
Source text: FIG. 6A-6C is a series of schematics and graphs showing that split RfxCas13d's reconstituted and functioned to knockdown mCherry expression in HEK293 FT cells FIG. 6A is a schematic showing split sites selected throughout RfxCas13d sequence. FIG. 6B is a bar graph showing mCherry expression under 4 conditions for gibberellin-inducible, rapalog-inducible, and abscisic acid-inducible inducible split Cas13d designs. In FIG. 6B and FIG. 6C, the left-right order of the bars for each split site is the same as the left-right order of the legend for each bar graph.
FIG. 7A-7E is a series of schematics and graphs showing a functional and inducible split Cas13d design. FIG. 7A is a bar graph showing additional split sites selected in RfxCas13d and tested with GIB CID domains. […] In FIG. 7A and FIG. 7C, the left-right order of the bars for each split site is the same as the left-right order of the legend. FIG. 7B is a schematic showing the design to compartmentalize splits. Compartmentalizing moieties facilitates the reduction of leakiness. […] FIG. 7D is a schematic showing the experiment flow for testing reversibility of the inducible split Cas13d's.
FIG. 8A-8B is a series of schematics and graphs showing that split RfxCas13d's reconstituted upon drug-induced dimerization and knocked down mCherry expression in HEK293 FT cells. FIG. 8A is a bar graph showing quantification of system performance. The left-right order of the bars for each split site is the same as the top-down order of the legend. […] System performance in leakiness score (left axis) and induced activity (right axis) by GIB, RAP, ABA, and Dano-inducible split Cas13d designs.
FIG. 10A-10B is a series of schematics and graphs showing performance optimization through separating split Cas13d moieties in different cellular compartments. […] The left-right order of the bars for each bar graph is the same as the top-down order of the legend.
FIG. 11 is a series of schematics and graphs showing the testing of reversed orientation (dark grey dots) of CID domains with respect to split Cas13d pieces against original orientations (light grey dots) designed for GIB, ABA, Dano, and GRZ inducible systems.

[1] = RfxCas13d split with GIB CID domains

Molecule | performance in the tested conditions | knockdown efficiency [1] | leaky off state activity [1]
B1 | highest performance | – | –
B2 | – | over 60% | minimum leaky off state activity
B3 | highest performance | – | –
B4 | highest performance | – | –
B5 | highest performance | – | –
